Reference: PMC3077903 (Molecular microbiology, 2011)
Substitutions are numbered along the chain they refer to. Numbers in names are those of the source.

B1: MinE (full length) (natural protein, E. coli, UniProt P0A734 1-88, looked up)
chain: MALLDFFLSRKKNTANIAKERLQIIVAERRRSDAEPHYLPQLRKDILEVICKYVQIDPEMVTVQLEQKDGDISILELNVTLPEAEELK
B2: MinDΔ10-D40A (domain or fragment, E. coli, UniProt P0AEZ3 1-260, looked up)
chain: MARIIVVTSGKGGVGKTTSSAAIATGLAQKGKKTVVIDFAIGLRNLDLIMGCERRVVYDFVNVIQGDATLNQALIKDKRTENLYILPASQTRDKDALTREGVAKVLDDLKAMDFEFIVCDSPAGIETGALMALYFADEAIITTNPEVSSVRDSDRILGILASKSRRAENGEEPIKEHLLLTRYNPGRVSRGDMLSMEDVLEILRIKLVGVIPEDQSVLRASNQGEPVILDINADAGKAYADTVERLLGEERPFRFIEEEK

What was measured:
MinD = target: T1, MinD (E. coli, UniProt P0AEZ3 1-270); test: two-hybrid
T1 sequence (looked up): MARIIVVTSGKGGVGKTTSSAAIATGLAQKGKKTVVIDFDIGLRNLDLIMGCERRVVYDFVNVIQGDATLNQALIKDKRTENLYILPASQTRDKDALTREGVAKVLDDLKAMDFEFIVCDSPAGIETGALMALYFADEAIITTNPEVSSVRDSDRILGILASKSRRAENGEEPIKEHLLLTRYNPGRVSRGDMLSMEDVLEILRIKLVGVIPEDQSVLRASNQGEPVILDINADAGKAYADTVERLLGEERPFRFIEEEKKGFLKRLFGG

MinD-D152A = target: T2, MinD-D152A (E. coli, UniProt P0AEZ3 1-270, D152A); test: two-hybrid
T2 sequence (looked up): T1 sequence (looked up) with D152A

SEC = target: the molecule itself; test: SEC

Binder	percent of the MinE-MinD β-galactosidase activity (MinD) [%]	percent of the MinE-MinD β-galactosidase activity (MinD-D152A) [%]	β-galactosidase activity (MinD-D152A)	β-galactosidase activity (MinD)	stoichiometry N (SEC)
B1	100	44	145 units of β-galactosidase activity	–	–
MALLDFFLSRKKNTANIAKERLQIIVAERRR (domain or fragment, E. coli, UniProt P0A734 1-31, looked up) [MinE^1-31]	120	8	28 units of β-galactosidase activity	398 units of β-galactosidase activity	–
B2	–	–	–	–	2
